Data as given in the DeepSol protein solubility set.

Test: soluble on expression in E. coli; label from the status in PepcDB or PDB records

| Sequence | soluble on expression in E. coli |
| --- | --- |
| MAHHHHHHMGTLEAQTQGPGSMSVRVAINGFGRIGRNILRAIIESGRQDIEVVALNDLGSVETNAHLLRYDSVHGCFPGTVQVVGDAIDIGSSLIKVFAERDPAQLPWKALDIDIALECTGIFTARDKASAHLDAGAKRVLVSAPSEGADLTVVYGVNHQFLSKEHHVISNASCTTNCLAPVAQVLHNTVGIEKGFMTTIHSYTGDQPVLDTMHRDLYRARAAALSMIPTSTGAAKAVGLVLPELKGLLDGVSIRVPTPNVSVVDLTFTAKRSTTIEEINTAIRTAAQGSLKGILDYTDEKLVSCDFNHNPHSAIFHNDQTKVIDGQLCRVLVWYDNEWGFSNRMCDTAVAFAKTI | soluble |
| MAHHHHHHMGTLEAQTQGPGSMTGPLAAARSVAATKSMTAPTVDERPDIKKGLAGVVVDTTAISKVVPQTNSLTYRGYPVQDLAARCSFEQVAFLLWRGELPTDAELALFSQRERASRRVDRSMLSLLAKLPDNCHPMDVVRTAISYLGAEDPDEDDAAANRAKAMRMMAVLPTIVAIDMRRRRGLPPIAPHSGLGYAQNFLHMCFGEVPETAVVSAFEQSMILYAEHGFNASTFAARVVTSTQSDIYSAVTGAIGALKGRLHGGANEAVMHDMIEIGDPANAREWLRAKLARKEKIMGFGHRVYRHGDSRVPTMKRALERVGTVRDGQRWLDIYQVLAAEMASATGILPNLDFPTGPAYYLMGFDIASFTPIFVMSRITGWTAHIMEQATANALIRPLSAYCGHEQRVLPGTF | soluble |
| MAHHHHHHMGTLEAQTQGPGSMVTANSTVKVGNVTFSNSAPLALIAGPCQMETRDHAFEMAGRLKEMTDKLGIGLVYKSSFDKANRTSLKAARGIGLEKALEVFSDLKKEYGFPVLTDIHTEEQCAAVAPVVDVLQIPAFLCRQTDLLIAAARTGRVVNVKKGQFLAPWDMKNVLAKITESGNPNVLATERGVSFGYNTLVSDMRALPIMAGLGAPVIFDATHSVQQPGGQGGSTGGQREFVETLARAAVAVGVAGFFIETHEDPDNAPSDGPNMVPIDKMPALLEKLMAFDRIAKAL | soluble |
| MAHHHHHHMGVGFQSKKLQNFCHSGAGEMCALENCIPRWGSFPCNAPGLTPVYELSSFENVELPLIFQKSNIGDLLASTSDSVGQLNGFQARHSNTEGIKSQVSYTSVALSTTNRENLFGWVDCAALPLCSSSTAGASILLVTLLTRESRGKSCMCILDDLVCQLSNGPFNWGCGGDCHDLISISLPSEPRNHAACPIILPIAKLSRKEIWLREAAPKMDVETIIYEGDNQQHLVDDVANGTNAGSCAVMEAGCRPETALGPENVKYGDNESVTQCEVTVDITPSTEPSARCLHFSECTTPVSSNRSFMEPIPLSNMESKALRCRKFDGTSYEVLRRRAHSDALSLILKKYSEHF | not soluble |
| MAHHHHHHMHFSPLVFHIHFTRSFSLFFRFCMQLATREGWWEEGGEKEGVFEGAIEEKTVMSFFFDEDSGDEPATKRHCTEQQQRAQGRPHGGFFNGNGEKDEDEDERPVLARAGSDRVGLRLLQGMQKPTSSSSSVLLSGKEKMRVVEAYVPLSVGGFMESSAETAVDNLSQIKPGNVMCLRSPASSASQASTGMNFVRETDLTEEERRYGKRLSSNMTQELFEVGRVDRDTGMLEAIFLDGTRRNLKAYAVRPAGFVEKELFRQWKRDPNSRPVRTVYAAPQDANASPSLSSTTQTTRTTAVDSAKRKNNTAAVELMPWWVSPQLIVRVVEKSAGDLFGKKFVVKSLSRKEGKIRLAPWQRSAGNGESAENSPVDIVGCEALETIVPKVGEQGIIVLGNMRGELVKVMERHRDVNGELASLKVCSTLTGNEFTVGPHEVCQLACPRP | not soluble |
| MAHHHHHHMHSSPFPSLFLVSRNGAHASRFSVVQLEYITSTCFSLLQVVTYRVATCSHGTMTALADEVREKYSLSLSSDYVERCVQAKASLTSLELYQKSLWENLRDICGTSLLPYGIGAQVSATLPNAVVMQINASRDATQPLRPCADASDEEAFLNAAFQRNSSKRLLRLQLTDGNVEISALELSTLCVFQGIPTPGEKLLIHKGAEVRNGCIILSEGSVSVLGGEVRQLKQDFLANRRRLEVGYQTSNGLDGAPRFAPLQVGHHYRSSVANSGAPVDIGHQGGASPYHANERGGRRSNYSRNGGGGGRAQQAGDNYEGRVSAGDHGRGGRGGRGGRGWDSSYGGDGWRGHGRRGGGYVRRGDGGRVDSRGCVGGASYHVDTANFQPPAEKFPEINEANFPRLV | not soluble |
